What was measured:
[1] = test system: Ngn3; test: Mutational series of Ngn3 in the HepG2 stability assay; format: cell-based
Source text: FIG. 66 (A-B) illustrates a mutational series of Ngn3, designed to stabilize the protein. A. listing of site directed point mutations. B. Testing of five substitution mutants.
Combined, these analyses served to focus us on the presence of lysines in the Helix 1/loop region and highlighted the importance of N-terminal acetylation protection as well. Of note, The K^118LTK^121 motif in the loop is completely conserved in Ngn3 in vertebrates, including teleosts and amphibians, and also between Ngn family members. Our approach to stabilizing Ngn3 is therefore to create an exhaustive point-substitution series of K>R to cover the entire protein (FIG. 66A), and also create deletion mutants of the N-, and C-termini flanking the bHLH domain. Because K121 is completely conserved in the bHLH family group, and positioned so that it aligns with the Helix 1 axis, this residue is likely critical for the folding/binding dynamics of the HLH domain, and mutation of this may likely impact DNA binding/function. Such constraints are not evident for K^118. We will also substitute the T120 residue in the KLTK loop to a Glutamic acid (E) to mimic a possible stabilizing phosphorylation event, which, based on phylogenetic comparisons to MASH1 may be of importance. […]

[2] = test system: stage 4 forward directed differentiating hES culture; test: Wnt3a at stage 4 of directed differentiation, RT-qPCR and immunohistochemistry; format: cell-based, human
Method: Panel A—Schematic representation of the two different directed differentiation protocols used throughout this series of experiments. The only difference between the two different differentiation protocols is the inclusion of Wnt3a at stage 4 of the directed differentiation protocol as illustrated. Control Cultures and cultures which had Wnt3a administrated at stage 4 were incubated an additional 4 days in maturation medium before RNA extractions and immunohistochemical analysis were performed. Panel B—An RT-qPCR analysis of the two differing conditions. Transcripts assayed are the endodermal marker FoxA2, the pancreatic progenitor marker Pdx1, the TrPC marker Nkx6.1 and the two endocrine markers Glucagon and Insulin. Note two different primer sets were used for insulin.
Panel C-J—Immunohistochemical analysis of stage 5 (day 4) cultures differentiated in the presence and absence of Wnt3a at stage 4. Panels CD and E-F compare the relative levels of C-peptide and Pdx1 respectively between the two differing differentiation protocols. Panels G-J show the combined expression of C-peptide and Pdx1 at both 10× magnification (panels G-H) and 20× Magnification (panels I-J).
To investigate the role of a canonical Wnt input on a PDX1+ progenitor population, Wnt3a was administered to a stage 4 forward directed differentiating hES culture. […] The relative expression of Pdx1 was increased over ˜5 fold over stage 4 cultures lacking the canonical input and relative transcript levels reached ˜3000 fold over hES controls. While Nkx6.1 levels were modest in comparison, only reaching a ˜3.3 fold increase over the stage 4 cultures lacking the canonical input and a relative transcript fold increase of ˜200 over hES controls. […] Both Glucagon and Insulin relative transcript levels were ˜2 fold greater in stage 4 cultures treated with Wnt3a as compared to stage 4 cultures lacking the canonical Wnt drive (FIG. 62 panel B). While there was a ˜5000 fold increase in Glucagon transcript levels and a ˜2500 fold increase in Insulin transcript levels when compared to hES levels. As a means to confirm the accuracy of the relative Insulin transcript levels two different set of primers were used and both primer sets produced similar results. In addition immunohistochemical analysis of these two different reactions was used to confirm the transcript analysis.

[3] = test system: H1 hES cultures; test: Pan-CM induction with reduced serum levels and Wnt3a on the first day, transcript analysis; format: cell-based, human
Source text: FIG. 16 (A-B)—Reduction of serum levels increases endocrine formation. Pluripotent cultures were passaged onto matrigel and maintained in MEF-conditioned medium for three days before being induced to differentiate by exposure to Pan-CM. Three different conditions were used as outlined in panel A. In the first condition Pan-CM was supplemented with Wnt3a on the first day followed by a 0.2% concentration of FBS for the rest of the reaction. In the second condition Pan-CM was supplemented with 0.2% FBS for the second day on. In the third condition Pan-CM was supplemented with 2% KO serum replacer.
The Pan-CM mediated induction of insulin producing cells from the H1 hES cultures is improved when low concentrations of serum is used. […] Finally it was noted that lower levels of serum reduced to levels of MEOX1 (a gene associated with the mesodermal lineage) observed in these cultures.

[4] = test system: pluripotent cultures; test: Defined (cell conditioned) medium versus Pan-CM, 5 day induction with serum variations and Wnt3a; format: cell-based, human; conditions: Wnt3a on the first day of the induction, 5 day induction period
Method: FIG. 44 (A-B)—Cell conditioned medium improves over the Pan-CM induction of pluripotent cells. Pluripotent cultures were passaged onto matrigel and maintained in the presence of MEF conditioned medium for 3 days to maintain pluripotency. They were next subjected to either Pan-CM or our cell conditioned medium supplemented with either 2% KO serum replacer or low concentrations of FBS as defined in panel A. The addition of Wnt3a on the initial day of differentiation was also assayed. […] Note the occurrence of the trunk progenitor cell is best defined with the loss of NKX6.1.
We next explored the ability of our defined medium informed from the transcriptome and sectretome analysis of the Pan-MEF cultures to induce the differentiation of pluripotent cells towards pancreatic fates. This was performed in short term cultures with incubation periods only lasting 5 days (FIG. 43).

[5] = Wnt3A added to Pan-CM on the first day, then 0.2% FBS

| Molecule | Ngn3 protein stability [1] | Glucagon and Insulin relative transcript levels compared to stage 4 cultures lacking the canonical Wnt drive [2] | Glucagon transcript levels increase compared to hES levels [2] | Insulin transcript levels increase compared to hES levels [2] | Nkx6.1 increase over the stage 4 cultures lacking the canonical input [2] | Nkx6.1 relative transcript fold increase over hES controls [2] | Pdx1 relative expression over stage 4 cultures lacking the canonical input [2] | Pdx1 relative transcript levels over hES controls [2] | HNF1-B up regulation [3, 5] | HNF6 up regulation [3, 5] | insulin transcript levels ([3]; Wnt3a on the first day of differentiation in Pan-CM) | NKX6.1 expression [4] |
| --- | --- | --- | --- | --- | --- | --- | --- | --- | --- | --- | --- | --- |
| K86/87 to Arginines: Ngn3 substitution mutant, lysines K86/87 replaced by Arginines, stabilized Ngn3 (protein, UniProt P70661 1-214, looked up, variant K86R K87R) Neurogenin-3: MAPHPLDALTIQVSPETQQPFPGASDHEVLSSNSTPPSPTLIPRDCSEAEVGDCRGTSRKLRARRGGRNRPKSELALSKQRRSRRRRANDRERNRMHNLNSALDALRGVLPTFPDDAKLTKIETLRFAHNYIWALTQTLRIADHSFYGPEPPVPCGELGSPGGGSNGDWGSIYSPVSQAGNLSPTASLEEFPGLQVPSSPSYLLPGALVFSDFL | lead to stabilization |  |  |  |  |  |  |  |  |  |  |  |
| Wnt3a: canonical Wnt ligand (protein, UniProt P56704 19-352, looked up) Protein Wnt-3a: SYPIWWSLAVGPQYSSLGSQPILCASIPGLVPKQLRFCRNYVEIMPSVAEGIKIGIQECQHQFRGRRWNCTTVHDSLAIFGPVLDKATRESAFVHAIASAGVAFAVTRSCAEGTAAICGCSSRHQGSPGKGWKWGGCSEDIEFGGMVSREFADARENRPDARSAMNRHNNEAGRQAIASHMHLKCKCHGLSGSCEVKTCWWSQPDFRAIGDFLKDKYDSASEMVVEKHRESRGWVETLRPRYTYFKVPTERDLVYYEASPNFCEPNPETGSFGTRDRTCNVSSHGIDGCDLLCCGRGHNARAERRREKCRCVFHWCCYVSCQECTRVYDVHTCK |  | ~2 fold | ~5000 fold | ~2500 fold | ~3.3 fold | ~200 fold | > 5 fold | ~3000 fold | ~55 × | ~85 × | comparable to the Pan-CM induction with 2% KO serum replacer | improved |
